Results taken from PMC8456996.
Read-outs that look alike come from different tables or passages of the source.

Columns and labels:
[1] = target: T1, Thioredoxin (hsTXN) (Homo sapiens, UniProt P10599 1-105); experiment: NMR HSQC titration
T1 sequence: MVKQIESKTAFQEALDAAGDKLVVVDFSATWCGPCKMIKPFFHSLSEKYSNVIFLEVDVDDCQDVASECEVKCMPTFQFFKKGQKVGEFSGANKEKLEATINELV

[2] = target: T2, Syntrophin-beta-1 PDZ domain (Homo sapiens, UniProt Q13884 111-196); experiment: NMR HSQC titration
T2 sequence: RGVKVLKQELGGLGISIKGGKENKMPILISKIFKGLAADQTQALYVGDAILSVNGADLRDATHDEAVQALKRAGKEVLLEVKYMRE

[3] = target: T1, Thioredoxin (hsTXN); experiment: NMR HSQC titration; remark: listed apart in the source
[4] = target: T3, End binding protein 1 (dmEB1) (Drosophila melanogaster, UniProt Q0E9N1 1-291); experiment: EMSA
T3 sequence: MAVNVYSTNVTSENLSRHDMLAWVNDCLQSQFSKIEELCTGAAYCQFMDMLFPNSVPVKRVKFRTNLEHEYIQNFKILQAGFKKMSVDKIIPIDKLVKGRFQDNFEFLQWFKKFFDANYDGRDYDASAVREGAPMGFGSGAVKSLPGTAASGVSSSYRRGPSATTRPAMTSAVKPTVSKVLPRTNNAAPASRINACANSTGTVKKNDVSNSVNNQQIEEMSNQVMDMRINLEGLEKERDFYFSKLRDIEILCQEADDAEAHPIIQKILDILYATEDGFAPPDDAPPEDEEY

[5] = target: T2, Syntrophin-beta-1 PDZ domain; experiment: NMR HSQC titration; remark: listed apart in the source
[6] = target: FPR1 (FK506-binding protein 1) (Saccharomyces cerevisiae, UniProt P20081 1-114); experiment: NMR HSQC titration
[7] = target: TRIM25 PRY/SPRY domain (UniProt Q14258 439-630); experiment: NMR HSQC titration
Sequence of TRIM25 PRY/SPRY domain (Q14258 439-630): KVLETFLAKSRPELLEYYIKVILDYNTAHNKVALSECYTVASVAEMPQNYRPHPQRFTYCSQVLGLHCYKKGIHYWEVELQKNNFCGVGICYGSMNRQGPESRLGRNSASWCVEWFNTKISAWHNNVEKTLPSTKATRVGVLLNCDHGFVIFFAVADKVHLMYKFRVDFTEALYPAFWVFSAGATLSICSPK

Sequence of FPR1 (FK506-binding protein 1) (P20081 whole entry, the tested form may be a part): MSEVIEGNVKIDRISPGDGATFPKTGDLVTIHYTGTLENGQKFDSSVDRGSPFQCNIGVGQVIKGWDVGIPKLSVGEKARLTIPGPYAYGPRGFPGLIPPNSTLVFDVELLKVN

UUUUUUUU (ssRNA) [poly(U) 8-mer]
binding result [1]: no binding
binding result [2]: no binding

AAAAAAAA (ssRNA) [poly(A) 8-mer]
binding result [3]: no binding

UUUUUUUUUUUUUUUUUUUUUUUUU (ssRNA) [poly(U) 25-mer, 32P probe]
binding result [4]: binds

CCCCCCCC (ssRNA) [poly(C) 8-mer]
binding result [3]: no binding
binding result [5]: no binding

UUUUUUUUU (ssRNA) [poly(U) 9-mer]
binding result [6]: no binding

UUUUUUUUUUUUUUU (ssRNA) [poly(U) 15-mer]
binding result [7]: binds
